Values quoted from earlier work, collected in article PMC4615603.

Biological target: Nef (Human immunodeficiency virus 1) (UniProt P04324)

Hck SH3 (from UniProt P08631)
Kd: 120 nM
